Assay results as given in US20260217779A1 (Chugai, published 2026).

B1: hCXCL11.0017-G1T4k.one//VHn-G1T4h.one.H435R (Fc fusion)
chain 1: FTMFKRGRCLCIGPGVKAVKVADIEKASIMYPSNNCDKIEVIITLKENKGQRCLNPKSKQARLIIKKVERKNFEPKSSDKTHTCPPCPAPELRRGPSVFLFPPKPKDTLMISRTPEVTCVVVDVSHEDPEVKFNWYVDGVEVHNAKTKPREEQYNSTYRVVSVLTVLHQDWLNGKEYKCKVSNKGLPSSIEKTISKAKGQPREPQVCTLPPSREEMTKNQVSLWCLVKGFYPSDIAVEWESNGQPENNYKTTPPVLDSDGSFFLYSKLTVDKSRWQEGNVFSCSVMHEALHNHYTQKSLSLSP
chain 2: EPKSSDKTHTCPPCPAPELRRGPSVFLFPPKPKDTLMISRTPEVTCVVVDVSHEDPEVKFNWYVDGVEVHNAKTKPREEQYNSTYRVVSVLTVLHQDWLNGKEYKCKVSNKGLPSSIEKTISKAKGQPREPQVYTLPPSRCEMTKNQVSLSCAVKGFYPSDIAVEWESNGQPENNYKTTPPVLDSDGSFFLVSKLTVDKSRWQEGNVFSCSVMHEALHNRYTQKSLSLSP
B2: hCXCL11.0021-G1T4k.one//VHn-G1T4h.one.H435R (Fc fusion)
chain 1: AFPMFKRGRCLCIGPGVKAVKVADIEKASIMYPSNNCDKIEVIITLKENKGQRCLNPKSKQARLIIKKVERKNFEPKSSDKTHTCPPCPAPELRRGPSVFLFPPKPKDTLMISRTPEVTCVVVDVSHEDPEVKFNWYVDGVEVHNAKTKPREEQYNSTYRVVSVLTVLHQDWLNGKEYKCKVSNKGLPSSIEKTISKAKGQPREPQVCTLPPSREEMTKNQVSLWCLVKGFYPSDIAVEWESNGQPENNYKTTPPVLDSDGSFFLYSKLTVDKSRWQEGNVFSCSVMHEALHNHYTQKSLSLSP
chain 2: EPKSSDKTHTCPPCPAPELRRGPSVFLFPPKPKDTLMISRTPEVTCVVVDVSHEDPEVKFNWYVDGVEVHNAKTKPREEQYNSTYRVVSVLTVLHQDWLNGKEYKCKVSNKGLPSSIEKTISKAKGQPREPQVYTLPPSRCEMTKNQVSLSCAVKGFYPSDIAVEWESNGQPENNYKTTPPVLDSDGSFFLVSKLTVDKSRWQEGNVFSCSVMHEALHNRYTQKSLSLSP
B3: hCXCL11.0018-G1T4k.one//VHn-G1T4h.one.H435R (Fc fusion)
chain 1: FVMFKRGRCLCIGPGVKAVKVADIEKASIMYPSNNCDKIEVIITLKENKGQRCLNPKSKQARLIIKKVERKNFEPKSSDKTHTCPPCPAPELRRGPSVFLFPPKPKDTLMISRTPEVTCVVVDVSHEDPEVKFNWYVDGVEVHNAKTKPREEQYNSTYRVVSVLTVLHQDWLNGKEYKCKVSNKGLPSSIEKTISKAKGQPREPQVCTLPPSREEMTKNQVSLWCLVKGFYPSDIAVEWESNGQPENNYKTTPPVLDSDGSFFLYSKLTVDKSRWQEGNVFSCSVMHEALHNHYTQKSLSLSP
chain 2: EPKSSDKTHTCPPCPAPELRRGPSVFLFPPKPKDTLMISRTPEVTCVVVDVSHEDPEVKFNWYVDGVEVHNAKTKPREEQYNSTYRVVSVLTVLHQDWLNGKEYKCKVSNKGLPSSIEKTISKAKGQPREPQVYTLPPSRCEMTKNQVSLSCAVKGFYPSDIAVEWESNGQPENNYKTTPPVLDSDGSFFLVSKLTVDKSRWQEGNVFSCSVMHEALHNRYTQKSLSLSP
B4: hCXCL11.0019-G1T4k.one//VHn-G1T4h.one.H435R (Fc fusion)
chain 1: FWMFKRGRCLCIGPGVKAVKVADIEKASIMYPSNNCDKIEVIITLKENKGQRCLNPKSKQARLIIKKVERKNFEPKSSDKTHTCPPCPAPELRRGPSVFLFPPKPKDTLMISRTPEVTCVVVDVSHEDPEVKFNWYVDGVEVHNAKTKPREEQYNSTYRVVSVLTVLHQDWLNGKEYKCKVSNKGLPSSIEKTISKAKGQPREPQVCTLPPSREEMTKNQVSLWCLVKGFYPSDIAVEWESNGQPENNYKTTPPVLDSDGSFFLYSKLTVDKSRWQEGNVFSCSVMHEALHNHYTQKSLSLSP
chain 2: EPKSSDKTHTCPPCPAPELRRGPSVFLFPPKPKDTLMISRTPEVTCVVVDVSHEDPEVKFNWYVDGVEVHNAKTKPREEQYNSTYRVVSVLTVLHQDWLNGKEYKCKVSNKGLPSSIEKTISKAKGQPREPQVYTLPPSRCEMTKNQVSLSCAVKGFYPSDIAVEWESNGQPENNYKTTPPVLDSDGSFFLVSKLTVDKSRWQEGNVFSCSVMHEALHNRYTQKSLSLSP
B5: hCXCL11.0022-G1T4k.one//VHn-G1T4h.one.H435R (Fc fusion)
chain 1: DFPMFKRGRCLCIGPGVKAVKVADIEKASIMYPSNNCDKIEVIITLKENKGQRCLNPKSKQARLIIKKVERKNFEPKSSDKTHTCPPCPAPELRRGPSVFLFPPKPKDTLMISRTPEVTCVVVDVSHEDPEVKFNWYVDGVEVHNAKTKPREEQYNSTYRVVSVLTVLHQDWLNGKEYKCKVSNKGLPSSIEKTISKAKGQPREPQVCTLPPSREEMTKNQVSLWCLVKGFYPSDIAVEWESNGQPENNYKTTPPVLDSDGSFFLYSKLTVDKSRWQEGNVFSCSVMHEALHNHYTQKSLSLSP
chain 2: EPKSSDKTHTCPPCPAPELRRGPSVFLFPPKPKDTLMISRTPEVTCVVVDVSHEDPEVKFNWYVDGVEVHNAKTKPREEQYNSTYRVVSVLTVLHQDWLNGKEYKCKVSNKGLPSSIEKTISKAKGQPREPQVYTLPPSRCEMTKNQVSLSCAVKGFYPSDIAVEWESNGQPENNYKTTPPVLDSDGSFFLVSKLTVDKSRWQEGNVFSCSVMHEALHNRYTQKSLSLSP
B6: hCXCL11.0023-G1T4k.one//VHn-G1T4h.one.H435R (Fc fusion)
chain 1: EFPMFKRGRCLCIGPGVKAVKVADIEKASIMYPSNNCDKIEVIITLKENKGQRCLNPKSKQARLIIKKVERKNFEPKSSDKTHTCPPCPAPELRRGPSVFLFPPKPKDTLMISRTPEVTCVVVDVSHEDPEVKFNWYVDGVEVHNAKTKPREEQYNSTYRVVSVLTVLHQDWLNGKEYKCKVSNKGLPSSIEKTISKAKGQPREPQVCTLPPSREEMTKNQVSLWCLVKGFYPSDIAVEWESNGQPENNYKTTPPVLDSDGSFFLYSKLTVDKSRWQEGNVFSCSVMHEALHNHYTQKSLSLSP
chain 2: EPKSSDKTHTCPPCPAPELRRGPSVFLFPPKPKDTLMISRTPEVTCVVVDVSHEDPEVKFNWYVDGVEVHNAKTKPREEQYNSTYRVVSVLTVLHQDWLNGKEYKCKVSNKGLPSSIEKTISKAKGQPREPQVYTLPPSRCEMTKNQVSLSCAVKGFYPSDIAVEWESNGQPENNYKTTPPVLDSDGSFFLVSKLTVDKSRWQEGNVFSCSVMHEALHNRYTQKSLSLSP
B7: hCXCL11.0020-G1T4k.one//VHn-G1T4h.one.H435R (Fc fusion)
chain 1: FYMFKRGRCLCIGPGVKAVKVADIEKASIMYPSNNCDKIEVIITLKENKGQRCLNPKSKQARLIIKKVERKNFEPKSSDKTHTCPPCPAPELRRGPSVFLFPPKPKDTLMISRTPEVTCVVVDVSHEDPEVKFNWYVDGVEVHNAKTKPREEQYNSTYRVVSVLTVLHQDWLNGKEYKCKVSNKGLPSSIEKTISKAKGQPREPQVCTLPPSREEMTKNQVSLWCLVKGFYPSDIAVEWESNGQPENNYKTTPPVLDSDGSFFLYSKLTVDKSRWQEGNVFSCSVMHEALHNHYTQKSLSLSP
chain 2: EPKSSDKTHTCPPCPAPELRRGPSVFLFPPKPKDTLMISRTPEVTCVVVDVSHEDPEVKFNWYVDGVEVHNAKTKPREEQYNSTYRVVSVLTVLHQDWLNGKEYKCKVSNKGLPSSIEKTISKAKGQPREPQVYTLPPSRCEMTKNQVSLSCAVKGFYPSDIAVEWESNGQPENNYKTTPPVLDSDGSFFLVSKLTVDKSRWQEGNVFSCSVMHEALHNRYTQKSLSLSP
B8: hCXCL11.0024-G1T4k.one//VHn-G1T4h.one.H435R (Fc fusion)
chain 1: FFPMFKRGRCLCIGPGVKAVKVADIEKASIMYPSNNCDKIEVIITLKENKGQRCLNPKSKQARLIIKKVERKNFEPKSSDKTHTCPPCPAPELRRGPSVFLFPPKPKDTLMISRTPEVTCVVVDVSHEDPEVKFNWYVDGVEVHNAKTKPREEQYNSTYRVVSVLTVLHQDWLNGKEYKCKVSNKGLPSSIEKTISKAKGQPREPQVCTLPPSREEMTKNQVSLWCLVKGFYPSDIAVEWESNGQPENNYKTTPPVLDSDGSFFLYSKLTVDKSRWQEGNVFSCSVMHEALHNHYTQKSLSLSP
chain 2: EPKSSDKTHTCPPCPAPELRRGPSVFLFPPKPKDTLMISRTPEVTCVVVDVSHEDPEVKFNWYVDGVEVHNAKTKPREEQYNSTYRVVSVLTVLHQDWLNGKEYKCKVSNKGLPSSIEKTISKAKGQPREPQVYTLPPSRCEMTKNQVSLSCAVKGFYPSDIAVEWESNGQPENNYKTTPPVLDSDGSFFLVSKLTVDKSRWQEGNVFSCSVMHEALHNRYTQKSLSLSP

target: T1, human CXCR3 (hCXCR3) on Ba/F3 transfectant cells (human, UniProt P49682 1-368); experiment: cell-based or functional assay
T1 sequence: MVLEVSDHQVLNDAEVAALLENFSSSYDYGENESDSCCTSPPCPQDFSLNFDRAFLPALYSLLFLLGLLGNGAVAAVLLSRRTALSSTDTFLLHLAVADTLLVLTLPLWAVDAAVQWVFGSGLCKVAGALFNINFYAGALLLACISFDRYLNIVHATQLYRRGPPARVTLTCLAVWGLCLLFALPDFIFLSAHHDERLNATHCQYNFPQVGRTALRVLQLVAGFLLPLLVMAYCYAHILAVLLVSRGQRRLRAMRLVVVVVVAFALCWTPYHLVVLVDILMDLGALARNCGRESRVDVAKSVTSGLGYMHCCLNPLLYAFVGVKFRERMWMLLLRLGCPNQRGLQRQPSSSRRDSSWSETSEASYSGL

Binder | Activity retention rate at 33 nM | Activity retention rate at 100 nM | Activity retention rate at 300 nM | Luminescence value at 33 nM | Luminescence value at 100 nM | Luminescence value at 300 nM
B1 | 61% | 74% | 69% | 4.72e+06 | 1.24e+07 | 8.54e+06
B2 | 108% | 93% | 84% | 8.26e+06 | 1.56e+07 | 1.04e+07
B3 | 24% | 50% | 81% | 1.85e+06 | 8.32e+06 | 1.01e+07
B4 | 4% | 28% | 93% | 325000 | 4.66e+06 | 1.15e+07
B5 | 178% | 89% | 49% | 1.37e+07 | 1.48e+07 | 6.06e+06
B6 | 189% | 98% | 48% | 1.45e+07 | 1.64e+07 | 5.98e+06
B7 | 28% | 62% | 95% | 2.15e+06 | 1.03e+07 | 1.18e+07
B8 | 32% | 72% | 105% | 2.47e+06 | 1.2e+07 | 1.31e+07
